Starred links: 1 amine or outer side, 2 acyl side, 3 side chain; linkers in the order of their positions; H or OH if unused. Positions of bridges follow the written chain, without caps; N, C: chain ends. Non-standard residues stand in square brackets, D forms with d. *: point of attachment. C20 diacid = O=C(O)CCCCCCCCCCCCCCCCCCC(=O)*; 19‑carboxyheptadecanoyl = not defined here; γGlu = O=C(O)[C@H](CCC(=O)[*:2])N[*:1]; AEEA = NCCOCCOCC(=O)O
T1: human calcitonin (a) receptor (human, UniProt P30988 25-474)
T1 sequence (looked up): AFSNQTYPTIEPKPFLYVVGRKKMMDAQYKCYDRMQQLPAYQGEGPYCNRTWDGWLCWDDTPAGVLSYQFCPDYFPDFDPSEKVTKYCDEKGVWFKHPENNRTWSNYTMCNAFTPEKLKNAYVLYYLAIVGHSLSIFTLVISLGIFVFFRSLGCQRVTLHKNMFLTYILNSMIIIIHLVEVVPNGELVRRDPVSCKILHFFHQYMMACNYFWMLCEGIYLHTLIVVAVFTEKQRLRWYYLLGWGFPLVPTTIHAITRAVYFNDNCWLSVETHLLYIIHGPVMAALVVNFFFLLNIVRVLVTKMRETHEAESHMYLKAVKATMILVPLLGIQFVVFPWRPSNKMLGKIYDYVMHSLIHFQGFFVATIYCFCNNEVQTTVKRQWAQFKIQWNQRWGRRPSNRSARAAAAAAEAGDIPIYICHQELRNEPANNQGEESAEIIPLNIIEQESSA

T2: human amylin 3(a) receptor (human calcitonin receptor + RAMP-3) (human, UniProt P30988 25-474; O60896 24-148)
T2 sequence (looked up) 1: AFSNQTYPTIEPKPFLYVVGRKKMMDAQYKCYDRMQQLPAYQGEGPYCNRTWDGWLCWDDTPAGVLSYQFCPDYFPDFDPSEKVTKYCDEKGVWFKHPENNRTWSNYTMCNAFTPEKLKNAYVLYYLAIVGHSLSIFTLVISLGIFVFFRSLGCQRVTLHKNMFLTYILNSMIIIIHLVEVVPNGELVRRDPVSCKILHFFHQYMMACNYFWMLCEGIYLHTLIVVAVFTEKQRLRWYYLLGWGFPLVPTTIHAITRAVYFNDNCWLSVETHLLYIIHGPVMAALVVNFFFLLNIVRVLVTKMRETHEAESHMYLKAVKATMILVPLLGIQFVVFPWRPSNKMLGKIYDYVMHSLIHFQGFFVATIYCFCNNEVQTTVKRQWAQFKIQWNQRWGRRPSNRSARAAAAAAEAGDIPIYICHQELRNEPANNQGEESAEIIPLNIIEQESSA
T2 sequence (looked up) 2: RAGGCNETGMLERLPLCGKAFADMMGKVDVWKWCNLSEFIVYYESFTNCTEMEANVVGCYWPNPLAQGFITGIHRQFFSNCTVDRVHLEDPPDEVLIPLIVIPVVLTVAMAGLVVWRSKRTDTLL

T3: rat calcitonin (a) receptor (rat, UniProt P32214 25-516)
T3 sequence (looked up): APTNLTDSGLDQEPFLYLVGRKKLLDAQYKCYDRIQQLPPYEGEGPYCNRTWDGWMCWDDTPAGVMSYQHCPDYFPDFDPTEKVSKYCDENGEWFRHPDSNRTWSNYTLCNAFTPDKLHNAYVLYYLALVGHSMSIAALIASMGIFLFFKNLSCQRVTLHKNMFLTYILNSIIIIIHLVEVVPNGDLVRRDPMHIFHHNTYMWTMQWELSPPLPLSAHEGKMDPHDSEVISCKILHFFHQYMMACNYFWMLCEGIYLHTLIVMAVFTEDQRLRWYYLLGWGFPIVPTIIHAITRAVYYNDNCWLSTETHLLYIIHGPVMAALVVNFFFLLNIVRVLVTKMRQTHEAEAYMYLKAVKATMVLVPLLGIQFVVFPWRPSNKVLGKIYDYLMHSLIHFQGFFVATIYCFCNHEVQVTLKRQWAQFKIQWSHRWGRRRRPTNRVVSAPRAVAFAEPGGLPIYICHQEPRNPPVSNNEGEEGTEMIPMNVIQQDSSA

T4: rat amylin 3(a) receptor (rat calcitonin(a) receptor + rat RAMP3) (rat, UniProt P32214 25-516; Q9JJ73 23-147)
T4 sequence (looked up) 1: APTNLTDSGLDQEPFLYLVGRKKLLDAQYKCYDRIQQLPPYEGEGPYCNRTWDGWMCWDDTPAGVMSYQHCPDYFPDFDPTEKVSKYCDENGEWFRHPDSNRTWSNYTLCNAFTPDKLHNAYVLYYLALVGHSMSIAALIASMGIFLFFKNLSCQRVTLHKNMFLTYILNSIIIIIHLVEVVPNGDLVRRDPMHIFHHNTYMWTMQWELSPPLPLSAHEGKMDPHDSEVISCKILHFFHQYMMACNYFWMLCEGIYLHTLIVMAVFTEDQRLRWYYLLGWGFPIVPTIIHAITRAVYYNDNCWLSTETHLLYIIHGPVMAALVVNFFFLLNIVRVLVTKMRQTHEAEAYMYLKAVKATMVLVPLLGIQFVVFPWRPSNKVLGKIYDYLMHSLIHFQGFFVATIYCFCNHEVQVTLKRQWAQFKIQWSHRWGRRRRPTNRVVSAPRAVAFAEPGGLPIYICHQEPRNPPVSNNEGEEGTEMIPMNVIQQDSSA
T4 sequence (looked up) 2: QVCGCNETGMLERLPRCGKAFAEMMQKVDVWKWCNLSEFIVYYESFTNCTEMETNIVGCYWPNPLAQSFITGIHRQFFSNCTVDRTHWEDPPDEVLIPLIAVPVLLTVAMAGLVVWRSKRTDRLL


How the values were obtained:
Test in all cases: cell-based or functional assay
[1] = target: T1, human calcitonin (a) receptor
[2] = target: T2, human amylin 3(a) receptor (human …)
[3] = target: T3, rat calcitonin (a) receptor
[4] = target: T4, rat amylin 3(a) receptor (rat …)

Binder	CTa receptor human EC50 [1] [pM]	Amylin receptor human EC50 [2] [pM]	CTa receptor rat EC50 [3] [pM]	Amylin receptor rat EC50 [4] [pM]
{19‑carboxyheptadecanoyl-γGlu-AEEA-AEEA}-[dR][dR]KCNTATCATQRLAEFLHRSSNNFGPILPPTNVGSNTY-NH2 (disulfide 4-9; reading uncertain; also: printed as N-alpha-[2-(2-{2-[2-(2-{2-[(S)-4-Carboxy-4-(19-carboxyheptadecanoylamino)butyrylamino]ethoxy}ethoxy)acetylamino]ethoxy}ethoxy)acetyl]-D-Arg-D-Arg-[Glu14,His17,Arg18]-pramlintide)	642	83.2	1890	132
{C20 diacid-γGlu}-EKCNTATCATQRLAEFLHHSSNNFGPILPPTNVGSNTY-NH2 (disulfide 3-8; not fully specified; printed as N-alpha-[(S)-4-Carboxy-4-(19-carboxynonadecanoylamino)butyryl]-Glu-[Glu14,His17]-pramlintide) [N-alpha-[(S)-4-Carboxy-4-(19-carboxynonadecanoylamino)butyryl]-Glu-[Glu14,His17]-pramlintide]	214	130	1390	476
{C20 diacid-γGlu}-HHHCNTATCATQRLAEFLHHSSNNFGPILPPTNVGSHTY-NH2 (disulfide 4-9; SMILES CC[C@H](C)[C@H](NC(=O)[C@@H]1CCCN1C(=O)CNC(=O)[C@H](Cc1ccccc1)NC(=O)[C@H](CC(N)=O)NC(=O)[C@H](CC(N)=O)NC(=O)[C@H](CO)NC(=O)[C@H](CO)NC(=O)[C@H](Cc1c[nH]cn1)NC(=O)[C@H](Cc1c[nH]cn1)NC(=O)[C@H](CC(C)C)NC(=O)[C@H](Cc1ccccc1)NC(=O)[C@H](CCC(=O)O)NC(=O)[C@H](C)NC(=O)[C@H](CC(C)C)NC(=O)[C@H](CCCNC(=N)N)NC(=O)[C@H](CCC(N)=O)NC(=O)[C@@H](NC(=O)[C@H](C)NC(=O)[C@@H]1CSSC[C@H](NC(=O)[C@H](Cc2c[nH]cn2)NC(=O)[C@H](Cc2c[nH]cn2)NC(=O)[C@H](Cc2c[nH]cn2)NC(=O)CC[C@H](NC(=O)CCCCCCCCCCCCCCCCCCC(=O)O)C(=O)O)C(=O)N[C@@H](CC(N)=O)C(=O)N[C@@H]([C@@H](C)O)C(=O)N[C@@H](C)C(=O)N[C@@H]([C@@H](C)O)C(=O)N1)[C@@H](C)O)C(=O)N[C@@H](CC(C)C)C(=O)N1CCC[C@H]1C(=O)N1CCC[C@H]1C(=O)N[C@H](C(=O)N[C@@H](CC(N)=O)C(=O)N[C@H](C(=O)NCC(=O)N[C@@H](CO)C(=O)N[C@@H](Cc1c[nH]cn1)C(=O)N[C@H](C(=O)N[C@@H](Cc1ccc(O)cc1)C(N)=O)[C@@H](C)O)C(C)C)[C@@H](C)O)	156	164	1310	200
{C20 diacid-γGlu}-ERCNTATCATQRLAEFLHHSSNNFGPILPPTNVGSNTY-NH2 (disulfide 3-8; SMILES CC[C@H](C)[C@H](NC(=O)[C@@H]1CCCN1C(=O)CNC(=O)[C@H](Cc1ccccc1)NC(=O)[C@H](CC(N)=O)NC(=O)[C@H](CC(N)=O)NC(=O)[C@H](CO)NC(=O)[C@H](CO)NC(=O)[C@H](Cc1c[nH]cn1)NC(=O)[C@H](Cc1c[nH]cn1)NC(=O)[C@H](CC(C)C)NC(=O)[C@H](Cc1ccccc1)NC(=O)[C@H](CCC(=O)O)NC(=O)[C@H](C)NC(=O)[C@H](CC(C)C)NC(=O)[C@H](CCCNC(=N)N)NC(=O)[C@H](CCC(N)=O)NC(=O)[C@@H](NC(=O)[C@H](C)NC(=O)[C@@H]1CSSC[C@H](NC(=O)[C@H](CCCNC(=N)N)NC(=O)[C@H](CCC(=O)O)NC(=O)CC[C@H](NC(=O)CCCCCCCCCCCCCCCCCCC(=O)O)C(=O)O)C(=O)N[C@@H](CC(N)=O)C(=O)N[C@@H]([C@@H](C)O)C(=O)N[C@@H](C)C(=O)N[C@@H]([C@@H](C)O)C(=O)N1)[C@@H](C)O)C(=O)N[C@@H](CC(C)C)C(=O)N1CCC[C@H]1C(=O)N1CCC[C@H]1C(=O)N[C@H](C(=O)N[C@@H](CC(N)=O)C(=O)N[C@H](C(=O)NCC(=O)N[C@@H](CO)C(=O)N[C@@H](CC(N)=O)C(=O)N[C@H](C(=O)N[C@@H](Cc1ccc(O)cc1)C(N)=O)[C@@H](C)O)C(C)C)[C@@H](C)O) [N-alpha-[(S)-4-Carboxy-4-(19-carboxynonadecanoylamino)butyryl]-Glu-[Arg1,Glu14,His17]-pramlintide]	184	119		

Second part, the binder after the results:

CTa receptor human EC50 [1] [pM]	Amylin receptor human EC50 [2] [pM]	CTa receptor rat EC50 [3] [pM]	Amylin receptor rat EC50 [4] [pM]	Binder
543	603	4870	401	{C20 diacid-γGlu}-HHHCHTATCATQRLAEFLHHSSNNFGPILPPTNVGSHTY-NH2 (disulfide 4-9; SMILES CC[C@H](C)[C@H](NC(=O)[C@@H]1CCCN1C(=O)CNC(=O)[C@H](Cc1ccccc1)NC(=O)[C@H](CC(N)=O)NC(=O)[C@H](CC(N)=O)NC(=O)[C@H](CO)NC(=O)[C@H](CO)NC(=O)[C@H](Cc1c[nH]cn1)NC(=O)[C@H](Cc1c[nH]cn1)NC(=O)[C@H](CC(C)C)NC(=O)[C@H](Cc1ccccc1)NC(=O)[C@H](CCC(=O)O)NC(=O)[C@H](C)NC(=O)[C@H](CC(C)C)NC(=O)[C@H](CCCNC(=N)N)NC(=O)[C@H](CCC(N)=O)NC(=O)[C@@H](NC(=O)[C@H](C)NC(=O)[C@@H]1CSSC[C@H](NC(=O)[C@H](Cc2c[nH]cn2)NC(=O)[C@H](Cc2c[nH]cn2)NC(=O)[C@H](Cc2c[nH]cn2)NC(=O)CC[C@H](NC(=O)CCCCCCCCCCCCCCCCCCC(=O)O)C(=O)O)C(=O)N[C@@H](Cc2c[nH]cn2)C(=O)N[C@@H]([C@@H](C)O)C(=O)N[C@@H](C)C(=O)N[C@@H]([C@@H](C)O)C(=O)N1)[C@@H](C)O)C(=O)N[C@@H](CC(C)C)C(=O)N1CCC[C@H]1C(=O)N1CCC[C@H]1C(=O)N[C@H](C(=O)N[C@@H](CC(N)=O)C(=O)N[C@H](C(=O)NCC(=O)N[C@@H](CO)C(=O)N[C@@H](Cc1c[nH]cn1)C(=O)N[C@H](C(=O)N[C@@H](Cc1ccc(O)cc1)C(N)=O)[C@@H](C)O)C(C)C)[C@@H](C)O)
107	121	539	188	{C20 diacid-γGlu}-KCNTATCATQRLAEFLHHSSNNFGPILPPTNVGSNTY-NH2 (disulfide 2-7; SMILES CC[C@H](C)[C@H](NC(=O)[C@@H]1CCCN1C(=O)CNC(=O)[C@H](Cc1ccccc1)NC(=O)[C@H](CC(N)=O)NC(=O)[C@H](CC(N)=O)NC(=O)[C@H](CO)NC(=O)[C@H](CO)NC(=O)[C@H](Cc1c[nH]cn1)NC(=O)[C@H](Cc1c[nH]cn1)NC(=O)[C@H](CC(C)C)NC(=O)[C@H](Cc1ccccc1)NC(=O)[C@H](CCC(=O)O)NC(=O)[C@H](C)NC(=O)[C@H](CC(C)C)NC(=O)[C@H](CCCNC(=N)N)NC(=O)[C@H](CCC(N)=O)NC(=O)[C@@H](NC(=O)[C@H](C)NC(=O)[C@@H]1CSSC[C@H](NC(=O)[C@H](CCCCN)NC(=O)CC[C@H](NC(=O)CCCCCCCCCCCCCCCCCCC(=O)O)C(=O)O)C(=O)N[C@@H](CC(N)=O)C(=O)N[C@@H]([C@@H](C)O)C(=O)N[C@@H](C)C(=O)N[C@@H]([C@@H](C)O)C(=O)N1)[C@@H](C)O)C(=O)N[C@@H](CC(C)C)C(=O)N1CCC[C@H]1C(=O)N1CCC[C@H]1C(=O)N[C@H](C(=O)N[C@@H](CC(N)=O)C(=O)N[C@H](C(=O)NCC(=O)N[C@@H](CO)C(=O)N[C@@H](CC(N)=O)C(=O)N[C@H](C(=O)N[C@@H](Cc1ccc(O)cc1)C(N)=O)[C@@H](C)O)C(C)C)[C@@H](C)O) [N-alpha-[(S)-4-Carboxy-4-(19-carboxynonadecanoylamino)butyryl]-[Glu14,His17]-pramlintide]
		287	348	KCNTATCATQRLAEFLRHSSNNFGPILPPTNVGSNTP (N-alpha acylated: C20diacid-gGlu; disulfide Cys2-Cys7; C-terminal amide) [N-alpha-[(S)-4-Carboxy-4-(19-carboxynonadecanoylamino)butyryl]-[Glu14,Arg17,Pro37]-pramlintide]

Reference: US20130005646A1 (Novo Nordisk, published 2013)
